Test results taken from the nanobody polyreactivity screen of Harvey et al. (2022).

assay: yeast display, Sf9 membrane polyspecificity reagent, FACS + sequencing; frameworks hold sequencing errors
How it was run: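 A nanobody's polyreactivity label depends on the gate it was sorted from. Yeast display cells were stained with 10% biotinylated, detergent-solubilized Sf9 membrane reagent for 1 hour at 4 °C, enriched on streptavidin microbeads and sorted by FACS. The low and high (top ~1%) gates were set on anti-HA fluorescence for expression and streptavidin fluorescence for reagent binding.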

Row | Sequence | polyreactivity (PSR sort gate)
1 | QDQLVESGGGLVQAGGSLRLSCAASGSTFHLNALGWYRQSPGKERELVAAISRDGSSTSYADSEKGRFTISRDNAKNTVYLQMNSLKPEDTAVFYCAADDTLDRVPSTFIDGSPGYGYWGLGTQVTVSS | low polyreactivity
2 | QDQLVESGGGLVQAGGSLRLSCAASGSTFLTYAMGWYRQAPGKERELVAAISKTGASTYYADSVKGRFTISRDNAKNTVYLQMNSLKPEDTAVYDCAAGRYTSYSPRYYYWGQGTQVTVSS | high polyreactivity
3 | QDQLVESGGGLVQAGGSLRLSCAASGSTFSGYGMGWYRQAPGKERELVAAITSSGGRTYYADSVKGRFTISRDNAKNTVYLQMNSLKPEDTAVYYCAALYYHEYDYWGQGTQVTVSS | low polyreactivity
4 | QDQLVESGGGLVQAGGSLRLSCAASGSTFVANDMGWYRQAPGKERELVASISDGSSTYADSVKGRFTISRDNAKNTVYLQMNSLKPEDTAVYYCAKDGSLDAQSYDYDYWGQGTQVTVSS | low polyreactivity
5 | QDQLVESGGGLVQAGGSLRLSCAASGSTFVVNAMGWYRQAPGKERELVAAISSSGSSTYADSVKGRFTISRDNEKNTVYLQMNCLKPEDTAVYYCHKTTLLTVEYDYWGQGTQVSVSS | low polyreactivity
6 | QDQLVESGGGLVQAGGSLRLSCAASGSTLGYNAMGWYRQAPGKERELVAAIRGGDDDTYYADSVKGRFTISRDNAKNTVYLQMNSLKPEDTAVYYCATGDTSIPYSTPGGYDSWGQGTQVTVSS | low polyreactivity
7 | QDQLVESGGGLVQAGGSLRLSCAASGYTFTSNAMGWYRQAPRKERELVAAITNVGSTNYADSVKGRFTISRDNAKNTVNLQMNSLKPEDTAVYYCAAGGSSSWAFNYWGQGTQVTVSS | low polyreactivity
8 | QDQLVESGGGLVQAGGSLRLSCAASGYTLYTYAMGWNRQAPRKERELVAAISTGGGRTYNADSVKGRFTISRDNAKNTVYLQMICLKPEDTAVYYCAAPYRSLKTGRYDYWGQGTQVSVSS | high polyreactivity
9 | QDQLVESGGGLVQAGGSLRLSCAASRSTFYHNVMGWYRQAPGKERELVASIDTGDSTNYADSVKGRFTISRDNAKNTVYLQMNSLKPEDTAVYYCAAEIPRRWASFATLWYDYWGQGTQVTVSS | low polyreactivity
10 | QDQLVESGGGLVQAGGSLRLSCAASVSTFVNYAMGWYRQAPGKEMELVAAMSWSGGSTYYADSVKGRFTISRDNAKNTVYLQMNSLKPEDTAVYYCAVYAYWRFRTYYYWGQGTQVTVSA | high polyreactivity
11 | QDQLVESGGGLVQAGGSLRLSCAATGRIFERNAMGWYRQAPAKERELVARITSGGGTYYADSVKGRFTISRDNAKNTVYLQMNSLKPEDTAVYYCAVQYLYRKYRRYDYWGQGTQVTVSS | high polyreactivity
12 | QDQLVESGGGLVQAGGSLRLSCAATGSIFGFNTMGWYRQAPGKERELVPTINWRGGRTYYADSVKGRFTISRDNAKNTVYLLMNSLKPEDTAVYYFNTQGLAGQYQEHGYWGQGTQVTVSS | high polyreactivity
13 | QDQLVESGGGLVQAGGSLRLSCAAYGSTFERYVMGWYRQAPGKDRELVADINSGGSTNYADSVKGRFTISRDNAKNTVYLQMNSLKPEDTAVYYCAKDGWGGWWFPYRVKYGYWGQGSQVTVSS | low polyreactivity
14 | QDQLVESGGGLVQAGGSLRLSCAPSGFIFEYNAMGWYRQAPGKESELVADISFSGGSTYYADSVKVRFTISRDNAKNTVYLQMKSLKPEDTAGYYCAARALASVSAHKYDYWGQGTQVTVSS | low polyreactivity
15 | QDQLVESGGGLVQAGGSLRLSCAPSGRTFYSYAMGWYRQAPGKERELVATIDSGGRTNYADSVKGRFTISRDNAKNTVYLQMNSLKPEDTAVYYCAASVWNWYFGIRYDYWGQGTQVTVSS | high polyreactivity
16 | QDQLVESGGGLVQAGGSLRLSCAPSGSIFYTNAMGWYRQAPRKERHLVAAISWGGGSTYYADSVKGRFTISRDNAKNTVYLQMNSLKAEDTAVYYCAARYYVYQQGFRSHVTKHYDYWGQGTQVTVSS | low polyreactivity
17 | QDQLVESGGGLVQAGGSLRLSCDASGSTFYRYDMGRSRQAPGKERELFAAINQSGDSTYYADSVKGRFTISRDKAKNTVYLQMNSLKPEDTAVYYCAAVRSRYLAFYYWGQCTQVTVSS | low polyreactivity
18 | QDQLVESGGGLVQAGGSLRLSCHSSGFIFTDYAMGWYRQAPGKERELVARITSGGASTYYADSVKGRFTISRDIAKNTVYLQMNSLKPEDTAVYYCAAQARCWGYVYWGQGTQVTVSS | low polyreactivity
19 | QDQLVESGGGLVQAGGSLRLSCPASGFTFERNTMGWYRQAPGKERELVAVITRRGGNTNYADSVKGRFTISRDNAKNTVYLQMNSLKPEDTAVYYCAAYYSHYGTRYDYWGQGTQVTVSS | high polyreactivity
20 | QDQLVESGGGLVQAGGSLRLSCSASGRIFYYYTMGWYRQEPGKERELVAAISSGGSTNYADSVKGRFTISRDNAKNTVYLQMNSLKPEDTAVYYCNVELTTVGHWYYYRPGYDYWVQGTQVTVSS | low polyreactivity
21 | QDQLVESGGGLVQAGGSLRLSFAASVSTFTTYAKGWYRQAPGKERELVAAIDWSDGSITYYADSVKGRFTISRDNAKNTVYLQMNSLKPEDTAVYYCAKDNSQYGWGYDYWVQGTQVTVSS | low polyreactivity
22 | QDQLVESGGGLVQAGGSLRLTCAASGFTFRRNAMGWYRQAPGKERELVAAISSRGGSTYYADSVKGRFTISRDNAKNTVYLQMNSLKPEDTAVYYCAAYYVPWGTLYHLDYWGQGTQVTVSS | high polyreactivity

Row | Sequence | polyreactivity (PSR sort gate)
23 | QDQLVESGGGLVQAGRSLRLSCAASGSIYAFYAMGWYRQAPRKERELVAAISSRGGRTYYADSVKGRFTISRDNAKNTVYLQMNRLKPEETAVYYCAALYWRYLGYPVVRYYYWGQGTQVNVSS | high polyreactivity
24 | QDQLVESGGGLVQAGRSLRLTCAASGSIIPGNAMGWYRQAPGKERELVAVIDFSGASTYYADSVKGRFTISRDNAKNTVYLQMNSLKPEDTADYWGQGTQVTVSS | low polyreactivity
25 | QDQLVESGGGLVQAGVSLRLSCAASGIISSDNAMGWYRQAPGKERELVAAITVSGGSTYYADSVKRRFTISRDNAKNTVYFQMNSLKPEDTAVYYCAADYSLEYGFDYWGQGTQVSVSS | low polyreactivity
26 | QDQLVESGGGLVQAVGSLRLSCAASGSIFSFNAIGWYRQAPGKERELVAVITQRGGSTYYADSVKGRFTISRDNAKTTVYLQMNSLKPEDTAVDYCAARTPRGYYYWGQGTQVTVSS | high polyreactivity
27 | QDQLVESGGGLVQEGRILRLISADSGRISRFNAMGWYRPAPGKERELVAAITRGASTYYADSVKGRFTISRDNAKNTVYLEMNSVKPEVTAVYYCAAAPSYSWTSVARYFYWGQGTQVPVSS | high polyreactivity
28 | QDQLVESGGGLVQSGGSLRLSCAASGSILWSYAMGWYIQAPGKERELVAANTSGGSTYYADSVKGRFTISRDNAKNTVYLQMNSLKPEDTAVYFCAADRWRDFWFNEEYWGQGTQVTVSS | high polyreactivity
29 | QDQLVESGGGLVQSGGSLRLSCAASGYIFGPYAMGWYRQAPGKEREFVATISGSVGSTYYADSVKGRFTISRDNGKNTVYLQMNSLKPQDTAVYYCNKDHSVYGYEYWGQGTQVTVSS | low polyreactivity
30 | QDQLVESGGRLVQAGGSLRLSCAASGRTFYYYAMGWYRQAPGKERELVARIRSGGSTNYADSVKGRFTISRDNAKNSVYLQMNSLKPEDTAVYYCNALGAKGYVKGFDYWGQGTQVTVSS | low polyreactivity
31 | QDQLVESGGVLVQAGGSLRLSCAASGSIFGYYAMGWYRQAPGKERELVARISYSGGTTYYADSVKGRFTNSRDNAKNTVYLQMNSQIPEDTAVYYCNARIPYSWRYGYWGQGTQVTVSS | high polyreactivity
32 | QDQLVESGRGLVEAGGSLRLSCAASGRILGRYAMGWNRQAPGKERELVAAISRSGGTTYYADSVKGRFTISRDNAKNTVYLEMNSLKPEDTAVYDCARLRVYAAVYDYWGQGTQVTVSS | high polyreactivity
33 | QDQLVESGVGLVQAGGSLRLSCAASGFTFTRNAMGWYRQAPGKEREFVAAITRSGGSTYYADSVKGRFTISRDNAKNTVYLQMNSLKPEDTAVYYCAAEVSSFLYTPSYSTDDYWGQGTQVTVSS | high polyreactivity
34 | QDQLVESRGDLVQAGGSLRLSCAASGSIFYDYAMRWYRQAPGKERELVAASDSGRNTTYADSVKGRFTISRDNAKKTVYFQMNSLKPEATAVYYCKTDPGWFDDSPPDPYIYGGYDYWGQGTQVTVSS | high polyreactivity
35 | QDQLVESRGGIVQAGGSLRLSCAASGSTFRLYAMGWYRQAPGKERELVAAISSGGTTKYADSVKGRFTNSRDNAKNTVYLQMNSLTPEDTAVYYCNAVYHWGNPGEYATLPRYDYWGQGTQVNVSS | high polyreactivity
36 | QDQLVESRGGLVQAGGRLRLSCAASGSIFASNTIGWYRQAPGKEREVVAGITKIGSSTYYADSVKGRFTISRDNAKNTVYLQMNSLKPEDTAVYYCNAYGPNIYSARYDYWGQGTQVTVSS | low polyreactivity
37 | QDQLVESRGGLVQAGGSLRLSSAASGFTLVVNAMGWYRQAPGKERELVAAITSRCGGTYYADSVKGRFTISRDKANNSVYLQMNSLKPEDTAVYYCAAPSLIVSTHRYGYWGQGTEVTVSS | low polyreactivity
38 | QDQLVESVGGLDQAGGSLRLSCAASGRIFVHNAMGWYRQAPGKEREFVAAISLRGGSTYYADSVKGRFTISRDNAKNTVYLQMNSLKTEDTAVYYCAAVPAHFYGFDYCGQGTQVTVSS | low polyreactivity
39 | QDQLVESVGGLDQAGGSLRLSSAASGRTFWWNAMGWYRQAPGKERELVAVISYSGGSTYYADSVKGRFTISRDNAKNTVYLQMNSLKPEDTAVYYCAAATRVRGFTEYYWGQGTQVTVSS | high polyreactivity
40 | QDQLVESVGGLVQAGGSLRLSCAASGNTFRSYVLGWYRQAPGKERELVADISSGDGTNYADSVKGRFTISRDNAKNTVYLQMNSLKREDTAVYYCAKDVYNFRTTHSYFTGYDSWGQGTQVTVSS | low polyreactivity
41 | QDQLVESVGGVVQAGGSLRLSCAASGRIIRTYAMGWYRQAPGKERELVATISYSSGRTYYADSVKGRFTISRDNAKNTVYLQMNSLKPEDTAVYYCARRRRSGSRQYYYWGQGTQVTVSS | high polyreactivity
42 | QDQLVESVVGLDQAGVSLRLSSAASGRTFRKYAMGCSRQAHGKERELVAAITSSGARTYYADSVKGRFTISRDNAKNTVYLQMNSLKPEDTAVYYCNAVSPYYGIEFEYWGLGTQVTVSS | high polyreactivity
43 | QDQLVETAGGLVQAGVTHTLSCAASAFTFRNYAMGWYRQAPGKESEFVAAISRRGGSTYYADSVKGRFTISRDNAKNTVYLQLNCLKPEDTAVYYCATEPGKQNTYRMDYWGQGTQVTVSS | high polyreactivity
